In patent US20260191937A1, “AGENTS, COMPOSITIONS AND METHODS FOR MODULATING IMMUNITY” (The University of Queensland, priority 2022, published 2026):

T1: 6PGD (Mus musculus, UniProt Q9DCD0)
T1 construct: host or cells: HEK293
T1 sequence (Q9DCD0 1-483): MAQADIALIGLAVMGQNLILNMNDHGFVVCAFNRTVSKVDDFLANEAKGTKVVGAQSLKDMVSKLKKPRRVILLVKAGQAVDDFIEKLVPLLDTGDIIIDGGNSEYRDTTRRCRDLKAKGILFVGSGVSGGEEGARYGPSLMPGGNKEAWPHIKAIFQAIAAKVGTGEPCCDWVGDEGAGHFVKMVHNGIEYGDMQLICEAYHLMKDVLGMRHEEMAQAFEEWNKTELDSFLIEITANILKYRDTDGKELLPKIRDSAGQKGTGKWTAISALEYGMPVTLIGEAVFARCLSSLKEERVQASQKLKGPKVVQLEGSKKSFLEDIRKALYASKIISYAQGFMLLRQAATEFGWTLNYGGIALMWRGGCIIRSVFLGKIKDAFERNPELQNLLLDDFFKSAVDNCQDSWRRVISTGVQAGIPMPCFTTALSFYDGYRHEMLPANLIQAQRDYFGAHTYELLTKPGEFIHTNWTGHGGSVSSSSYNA


Biological target: T1, 6PGD
Assay: 6PGD enzyme activity in lysates of HEK293 cells co-transfected with 6PGD and HDAC7 constructs
Format: biochemical
Details: molar ratio 1:1 (6PGD:HDAC), 24 h after transfection
Protocol: FIG. 19 is a graphical representation of HDAC7 increasing 6PGD enzyme activity in HEK293 cells. HEK293 cells were transfected with expression constructs encoding (A-B) 6PGD and/or HDAC7, (C-D) 6PGD and HDAC7 wild type (WT) or HDAC7 enzyme-dead (ED), (E-F) 6PGD and full-length (HDAC7), N-terminal HDAC7 (N-HDAC7) or C-terminal HDAC7 (C-HDAC7) at a molar ratio of 1:1 (6PGD:HDAC). After 24 h, cells were lysed and the enzymatic activity of 6PGD in lysates was measured. […] Statistical analysis was performed using repeated measure one-way ANOVA followed by Dunnett's multiple comparison (ns, not significant; * p<0.05; ** p<0.01). (B, D, F) Levels of 6PGD (Flag), HDAC7 (V5) and GAPDH expression in cell lysates were assessed via western blot.
6PGD activity can be enhanced by co-delivering HDAC7. HEK293 cells were plated in 12-well plates and incubated overnight at 37° C. The Lipofectamine 2000 (Invitrogen) transfection reagent was prepared in OptiMEM to a final concentration of 1 μg DNA per μL and incubated at room temperature for 5 min. Plasmid DNA was diluted in OptiMEM (Gibco) and then mixed with Lipofectamine 2000, after which the transfection mixture was incubated at room temperature for 30 min. Prior to transfection, cell culture media was replaced with OptiMEM, after which the transfection mixture was added into cells. Cells were then incubated at 37° C. for 6-8 h before being supplemented with fresh OptiMEM. 24 h post-transfection, culture supernatants were discarded, and cells were briefly washed with DPBS and lysed for different analyses.
Mouse HDAC7 (the unspliced isoform lacking the first 22 amino acids), an enzyme-dead (ED) mutant HDAC7 carrying an H-to-A mutation (Das Gupta et al., 2020, Cell Rep. 30:2712-2728.e2718), N-terminal HDAC7 (N-HDAC7, amino acid 23-504, comprising a PHA03247 super family motif corresponding to the herpes simplex virus-1 UL36 large tegument protein, which is known to comprise deubiquitinating activity) and C-terminal HDAC7 (C-HDAC7, amino acid 498-938) were cloned in pEF6/V5-His-TOPO vectors. Mouse 6PGD was cloned in a pCMV expression vector (MG53165-CF, Sino Biologicals). HEK293 cells were transiently transfected with expression constructs encoding 6PGD and HDAC7 at a molar ratio of 1:1. 24 h after transfection, cells were lysed and lysates were subjected to 6PGD activity assays using an in vitro assay (Abcam), as per the manufacturer's instructions. The enzymatic activity was determined by measuring absorbance at 460 nm in kinetic mode using a plate reader (Infinite M Plex, Tecan).

| Molecule | enzymatic activity of 6PGD relative to cells transfected with 6PGD alone | enzymatic activity of 6PGD relative to cells transfected with 6PGD alone (listed as WT HDAC7) |
| --- | --- | --- |
| C-terminal deacetylase domain of HDAC7: C-terminal HDAC7, amino acid 498-938, SEQ ID NO:23 (protein, listed as Mus musculus) MVLNSSETPATGLVYDSVMLKHQCSCGDNSKHPEHAGRIQSIWSRLQERGLRSQCECLRGRKASLEELQSVHSERHVLLYGTNPLSRLKLDNGKLTGLLAQRTFVMLPCGGVGVDTDTIWNELHSSNAARWAAGSVTDLAFKVASRELKNGFAVVRPPGHHADHSTAMGFCFFNSVAIACRQLQQHGKASKILIVDWDVHHGNGTQQTFYQDPSVLYISLHRHDDGNFFPGSGAVDEVGTGSGEGFNVNVAWAGGLDPPMGDPEYLAAFRIVVMPIAREFAPDLVLVSAGFDAAEGHPAPLGGYHVSAKCFGYMTQQLMNLAGGAVVLALEGGHDLTAICDASEACVAALLGNKVDPLSEESWKQKPNLSAIRSLEAVVRVHRKYWGCMQRLASCPDSWLPRVPGADAEVEAVTALASLSVGILAEDRPSERLVEEEEPMNL | does not activate 6PGD | – |
| N-terminal domain of HDAC7: N-terminal HDAC7, amino acid 23-504, SEQ ID NO:15 (protein, listed as Mus musculus) MDLRVGQRPTVEPPPEPALLTLQHPQRLHRHLFLAGLHQQQRSAEPMRLSMDPPMPELQGGQQEQELRQLLNKDKSKRSAVASSVVKQKLAEVILKKQQAALERTVHPSSPSIPYRTLEPLDTEGAARSVLSSFLPPVPSLPTEPPEHFPLRKTVSEPNLKLRYKPKKSLERRKNPLLRKESAPPSLRRRPAETLGDSSPSSSSTPASGCSSPNDSEHGPNPALGSEADGDRRTHSTLGPRGPVLGNPHAPLFLHHGLEPEAGGTLPSRLQPILLLDPSVSHAPLWTVPGLGPLPFHFAQPLLTTERLSGSGLHRPLNRTRSEPLPPSATASPLLAPLQPRQDRLKPHVQLIKPAISPPQRPAKPSEKPRLRQIPSAEDLETDGGGVGPMANDGLEHRESGRGPPEGRGSISLQQHQQVPPWEQQHLAGRLSQGSPGDSVLIPLAQVGHRPLSRTQSSPAAPVSMLSPEPTCQTQVLNSSET | increased the enzymatic activity of 6PGD to similar levels to that of the WT HDAC7 | – |
| HDAC7: Mouse HDAC7 lacking the first 22 amino acids, SEQ ID NO:13, expression construct (protein, listed as Mus musculus) MDLRVGQRPTVEPPPEPALLTLQHPQRLHRHLFLAGLHQQQRSAEPMRLSMDPPMPELQGGQQEQELRQLLNKDKSKRSAVASSVVKQKLAEVILKKQQAALERTVHPSSPSIPYRTLEPLDTEGAARSVLSSFLPPVPSLPTEPPEHFPLRKTVSEPNLKLRYKPKKSLERRKNPLLRKESAPPSLRRRPAETLGDSSPSSSSTPASGCSSPNDSEHGPNPALGSEADGDRRTHSTLGPRGPVLGNPHAPLFLHHGLEPEAGGTLPSRLQPILLLDPSVSHAPLWTVPGLGPLPFHFAQPLLTTERLSGSGLHRPLNRTRSEPLPPSATASPLLAPLQPRQDRLKPHVQLIKPAISPPQRPAKPSEKPRLRQIPSAEDLETDGGGVGPMANDGLEHRESGRGPPEGRGSISLQQHQQVPPWEQQHLAGRLSQGSPGDSVLIPLAQVGHRPLSRTQSSPAAPVSMLSPEPTCQTQVLNSSETPATGLVYDSVMLKHQCSCGDNSKHPEHAGRIQSIWSRLQERGLRSQCECLRGRKASLEELQSVHSERHVLLYGTNPLSRLKLDNGKLTGLLAQRTFVMLPCGGVGVDTDTIWNELHSSNAARWAAGSVTDLAFKVASRELKNGFAVVRPPGHHADHSTAMGFCFFNSVAIACRQLQQHGKASKILIVDWDVHHGNGTQQTFYQDPSVLYISLHRHDDGNFFPGSGAVDEVGTGSGEGFNVNVAWAGGLDPPMGDPEYLAAFRIVVMPIAREFAPDLVLVSAGFDAAEGHPAPLGGYHVSAKCFGYMTQQLMNLAGGAVVLALEGGHDLTAICDASEACVAALLGNKVDPLSEESWKQKPNLSAIRSLEAVVRVHRKYWGCMQRLASCPDSWLPRVPGADAEVEAVTALASLSVGILAEDRPSERLVEEEEPMNL | significantly increases 6PGD activity | significantly increased the enzymatic activity of 6PGD to a similar level |
| ED HDAC7: enzyme-dead mutant HDAC7 carrying an H-to-A mutation, SEQ ID NO:14 (protein) MDLRVGQRPTVEPPPEPALLTLQHPQRLHRHLFLAGLHQQQRSAEPMRLSMDPPMPELQGGQQEQELRQLLNKDKSKRSAVASSVVKQKLAEVILKKQQAALERTVHPSSPSIPYRTLEPLDTEGAARSVLSSFLPPVPSLPTEPPEHFPLRKTVSEPNLKLRYKPKKSLERRKNPLLRKESAPPSLRRRPAETLGDSSPSSSSTPASGCSSPNDSEHGPNPALGSEADGDRRTHSTLGPRGPVLGNPHAPLFLHHGLEPEAGGTLPSRLQPILLLDPSVSHAPLWTVPGLGPLPFHFAQPLLTTERLSGSGLHRPLNRTRSEPLPPSATASPLLAPLQPRQDRLKPHVQLIKPAISPPQRPAKPSEKPRLRQIPSAEDLETDGGGVGPMANDGLEHRESGRGPPEGRGSISLQQHQQVPPWEQQHLAGRLSQGSPGDSVLIPLAQVGHRPLSRTQSSPAAPVSMLSPEPTCQTQVLNSSETPATGLVYDSVMLKHQCSCGDNSKHPEHAGRIQSIWSRLQERGLRSQCECLRGRKASLEELQSVHSERHVLLYGTNPLSRLKLDNGKLTGLLAQRTFVMLPCGGVGVDTDTIWNELHSSNAARWAAGSVTDLAFKVASRELKNGFAVVRPPGHAADHSTAMGFCFFNSVAIACRQLQQHGKASKILIVDWDVHHGNGTQQTFYQDPSVLYISLHRHDDGNFFPGSGAVDEVGTGSGEGFNVNVAWAGGLDPPMGDPEYLAAFRIVVMPIAREFAPDLVLVSAGFDAAEGHPAPLGGYHVSAKCFGYMTQQLMNLAGGAVVLALEGGHDLTAICDASEACVAALLGNKVDPLSEESWKQKPNLSAIRSLEAVVRVHRKYWGCMQRLASCPDSWLPRVPGADAEVEAVTALASLSVGILAEDRPSERLVEEEEPMNL | significantly increased the enzymatic activity of 6PGD to a similar level | – |
